For experiment [1], the system named is Human Pulmonary Fibroblasts. The experiment can be described thus: Fibroblast-to-Myofibroblasts Transition (FMT), αSMA expression. Particulars: for inhibition of αSMA expression / FMT: TGFβ-induced FMT; for Inhibition of FMT: Yes/No. It is filed as cell-based. The protocol: Human Pulmonary Fibroblasts (ScienCell) were cultured in complete Fibroblast Growth Medium (ScienCell) until 80% confluent. Cells were washed and harvested using Accutase. Cells were seeded onto tissue culture-treated 96 well plates at 20,000 cells/well in complete Fibroblast Growth Medium. After 24 hours, cells were washed and starved in serum reduced medium for an additional 24 hours. After starvation, cells were treated with TGFβ-1 (R&D Systems) with or without anti-α11 antibodies. A polyclonal rabbit anti-human α11 antibody was used as a positive control. Appropriate IgG isotype controls were also included. After 48 hours, cells were harvested, fixed, permeabilized and stained with AlexaFluor488 Labeled Anti-αSMA (α-smooth muscle actin) (Invitrogen). Cells were acquired on a FACS Verse (Benton Dickson) to determine expression levels of αSMA. Data were analyzed by gating on single cells and determining the geometric Mean Fluorescence Intensity (gMFI) in the FITC channel for each sample. gMFI for each sample was normalized to the untreated control and presented as % inhibition.
In addition to the binding abilities described above, it is important for an anti-α11β1 antibody to inhibit the fibroblast-to-myofibroblast transition (FMT). It is now appreciated that myofibroblasts are a heterogeneous cell population, existing in different activation states, with the main function of producing and contracting collagen extracellular matrix (ECM). FMT is a multi-step event that is controlled by a changing mechanical environment in tissues undergoing repair. TGFβ is one of the potent factors that potentiates this process and alpha smooth muscle actin (αSMA) is one of the main markers that becomes overexpressed when fibroblasts are undergoing the transition to becoming myofibroblasts. The presence of αSMA enhances fibroblast contraction and guides myofibroblast activation through an intracellular feedback loop. Because αSMA is the main molecular marker of myofibroblasts, the ability of the novel anti-α11β1 mAbs to inhibit αSMA expression in TGFβ-induced FMT was tested.

The target of experiment [2] is T1, α11β1 expressed on the surface of CHO-K1 cells (Homo sapiens, UniProt Q9UKX5).
T1 construct: expressed in transfected cells; host or cells: CHO-K1
T1 sequence (Q9UKX5 23-1188): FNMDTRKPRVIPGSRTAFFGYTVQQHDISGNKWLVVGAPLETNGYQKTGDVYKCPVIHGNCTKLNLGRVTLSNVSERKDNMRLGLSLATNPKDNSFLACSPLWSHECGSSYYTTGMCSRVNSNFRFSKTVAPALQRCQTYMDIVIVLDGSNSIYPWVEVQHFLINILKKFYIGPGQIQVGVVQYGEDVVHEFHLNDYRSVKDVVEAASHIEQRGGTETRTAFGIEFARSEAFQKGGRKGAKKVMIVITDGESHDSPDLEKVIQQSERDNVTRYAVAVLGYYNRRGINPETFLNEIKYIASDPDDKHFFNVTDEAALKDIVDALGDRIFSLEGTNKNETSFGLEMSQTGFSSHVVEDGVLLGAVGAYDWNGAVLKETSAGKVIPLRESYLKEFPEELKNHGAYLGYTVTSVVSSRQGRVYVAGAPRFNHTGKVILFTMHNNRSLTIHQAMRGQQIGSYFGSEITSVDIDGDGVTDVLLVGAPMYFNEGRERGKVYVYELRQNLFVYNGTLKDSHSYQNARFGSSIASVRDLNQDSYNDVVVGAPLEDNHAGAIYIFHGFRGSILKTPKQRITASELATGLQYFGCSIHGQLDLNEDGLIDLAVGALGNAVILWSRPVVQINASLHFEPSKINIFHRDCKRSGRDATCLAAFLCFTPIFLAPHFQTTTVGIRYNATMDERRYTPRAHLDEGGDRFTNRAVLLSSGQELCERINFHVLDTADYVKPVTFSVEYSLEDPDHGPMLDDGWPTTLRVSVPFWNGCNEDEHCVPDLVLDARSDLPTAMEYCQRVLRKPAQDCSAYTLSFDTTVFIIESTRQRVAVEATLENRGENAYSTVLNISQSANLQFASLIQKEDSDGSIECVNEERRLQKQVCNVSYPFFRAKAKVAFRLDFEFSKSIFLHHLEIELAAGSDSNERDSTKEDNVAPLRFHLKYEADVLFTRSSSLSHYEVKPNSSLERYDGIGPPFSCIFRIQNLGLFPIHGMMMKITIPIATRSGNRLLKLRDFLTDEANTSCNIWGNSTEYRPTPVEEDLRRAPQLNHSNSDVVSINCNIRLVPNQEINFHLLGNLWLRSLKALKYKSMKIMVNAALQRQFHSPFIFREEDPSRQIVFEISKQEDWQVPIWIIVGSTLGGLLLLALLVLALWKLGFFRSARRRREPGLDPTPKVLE
The experiment in a line: FACS antibody binding to CHO-K1 cells expressing human α11. The settings on record: for CHO-K1 FACS: binding Yes/No. The protocol:
200,000 cells (wild-type CHO-K1 cells or CHO-K1 cells expressing human α11) were incubated with each antibody at desired concentrations in FACS buffer for 30 min at 4° C. Then, the cells were washed with FACS buffer and incubated with secondary antibody at 1:100 dilution for 30 minutes at 4° C. Cells were then washed and fixed with 1% PFA in PBS for 20 minutes at room temperature; washed again and read on a cytometer in FACS buffer.
Since integrins are large, transmembrane receptors that exist in different conformational shapes, experiments were performed to confirm that the novel antibodies also bound cell-expressed α11β1. A CHO-K1 cell line that endogenously expressed high levels of the β1 subunit was engineered to stably express human α11 (CHO-K1 hu α11).
Binding EC50 was estimated using data from Fluorescence-activated cell sorting (FACS) performed with CHO-K1 hu α11β1 cells.

The test system of the next experiment is α1β1, α2β1 and/or α10β1. The experiment in a line: Counter-screen for cross-reactivity to other collagen receptors. It is filed as binding, human. Particulars: for Off Target: cross-reactivity to α1β1, α2β1, α10β1. The protocol: Wistar rats were immunized with recombinant human α11β1 protein. An enzyme-linked immunosorbent assay (ELISA) was used to test an immune response against target human and mouse proteins. Subsequently, cell fusion (by electro fusion) was performed with animals that produced a good immune response. All fused cells were plated in a 96-well plate and supernatants were screened by ELISA against soluble human and mouse α11β1. Positive clones were counter-screened against human α1β1, α2β1 and α10β1. […] Purified antibodies were then generated from the selected clones and heavy chain and light chain variable domain sequences were obtained from each purified antibody.
10 mice from 5 different strains were immunized with an appropriate mixture of human α11β1, mouse α11β1 and tolerance breaking protein. Plasma titers were evaluated by ELISA against a mixture of human and mouse α11β1. Popliteal, inguinal, and iliac lymph nodes were collected. ELISA-positive anti-human/mouse α11β1 hybridomas were expanded and subjected to a secondary screen against human and mouse α11β1, control HIS protein, and a counter-screen was performed against human […], α2β1 and α10β1. Supernatant IgG concentration was sufficient for functional screening. Selected hybridomas satisfying all the criteria were cloned and clonal hybridomas were confirmed by ELISA against human and mouse α11β1 and subsequently scaled-up and IgGs were purified. Heavy and light chain variable regions of selected hybridomas were then sequenced.
α11β1 belongs to a family of collagen receptors and has a relatively high homology to them. Therefore, the novel antibodies of this invention were counter-screened against α1β1, α2β1 and/or α10β1. Table 2 includes results of cross-reactivity to the other receptors.
In general terms: Counterscreens check selectivity or assay interference.

This is an account of results in patent publication US12460006B2, “Antibodies against integrin alpha 11 beta 1” (Momenta Pharmaceuticals, Inc., priority 2019, dated 2025).

B1: 24E4G6: rat anti-α11β1 mAb; VH SEQ ID NO: 147, VL SEQ ID NO: 148 (antibody, V domains shown)
VH: MELELSLIFIFSLLKDVQCEVQLVESGGSLVQPGGSLKLSCVASGYTFSNYWMDWVRQSPGKSLEWIGEINTDGRRTNYAPSIKDRFTISRDNAKSTLYLQMSNVKSDDTAIYYCTILRVYPHYFDYWGQGVMVTVSS
VL: MMSPAQFLFLLMLWIQEARGDVVMTQTPPSLSVAIGQSVSISCKSSQSLVYSDGETYLHWFLQSPGRSPKRLIYHVSNLGSGVPDRFSGTGSLTDFTLRISRVEAEDLGVYYCAQTTHFPPTFGAGTKLELK
On to B1, for which, in experiment [1], the “inhibition of αSMA expression / FMT” value is “significantly inhibited αSMA expression” and the “Inhibition of FMT” value is given as “Yes”. Further, the “CHO-K1 FACS” value in experiment [2] is “Yes”. The “Off Target” value with α1β1, α2β1 and/or α10β1 was “No”.

B2: 9-E16: mouse anti-α11β1 mAb; VH SEQ ID NO: 111, VL SEQ ID NO: 112 (antibody, V domains shown)
VH: EVQLQQSGPELVKPGASVKISCKASGYTFTDYYMHWVKQKPGQGLEWIGEIYPGSGNPYYNEKFKGKATLTADKSSSSAYMQLSSLTSEDSAVYFCARTSYGRVGTGFAYWGQGTLVTVSA
VL: NFVMTQTPLSLPVSLGDQASISCRSSQSLLHSNGNTYLHWYLQKPGQSPKLLIYKVSNRFSGVPDRFSGSGSGTDFTLKINRVETEDLGIYFCSQSSHVPTFGAGTKLELK
B2: in experiment [1], the “inhibition of αSMA expression / FMT” value is on record as “FMT inhibitors” and the “Inhibition of FMT” value is “Yes”. The “CHO-K1 binding EC50 (in words)” value in experiment [2] (FACS) is recorded as “not as potent”. In experiment [2], the “CHO-K1 FACS” value is reported as “Yes”. Also, the “Off Target” value in the experiment on α1β1, α2β1 and/or α10β1 was “No”.

B3: 16G7: rabbit anti-α11β1 mAb; heavy chain SEQ ID NO: 159, light chain SEQ ID NO: 160 (antibody)
heavy: METGLRWLLLVAVFKGVQCQEQLVESGGDLVKPGASLTLTCTASGFSFNKNYWMCWVRQAPGKGLEWIGCIYNGDGNTYYASWVNGRFTISKTSSTTVTLQMTSLTVADTAIYFCARLLNMWGPGTLVTVSSGQPKAPSVFPLAPCCGDTPSSTVTLGCLVKGYLPEPVTVTWNSGTLTNGVRTFPSVRQSSGLYSLSSVVSVTSSSQPVTCNVAHPATNTKVDKTVAPSTCSKPMCPPPELPGGPSVFIFPPKPKDTLMISRTPEVTCVVVDVSQDDPEVQFTWYINNEQVRTARPPLREQQFNSTIRVVSTLPIAHQDWLRGKEFKCKVHNKALPAPIEKTISKARGQPLEPKVYTMGPPREELSSRSVSLTCMINGFYPSDISVEWEKNGKAEDNYKTTPTVLDSDGSYFLYSKLSVPTSEWQRGDVFTCSVMHEALHNHYTQKSISRSPGK
light: MDTRAPTQLLGLLLLWLPGARCADIVMTQTPASVEAAVGGTVTIKCQASESIGNALAWYQQKPGQPPKLLIYTAATLASGVPSRFSGSGSGTEFTLTISGVQCDDAATYYCQSYYFTSVSSYGNAFGGGTEVVVKGDPVAPTVLIFPPAADQVATGTVTIVCVANKYFPDVTVTWEVDGTTQTTGIENSKTPQNSADCTYNLSSTLTLTSTQYNSHKEYTCKVTQGTTSVVQSFNRGDC
In the case of B3, in experiment [1], the “inhibition of αSMA expression / FMT” value was “inhibit FMT” and the “Inhibition of FMT” value is listed as “Yes”. For the same molecule, the “CHO-K1 FACS” value in experiment [2] is recorded as “Yes”. In addition, in the experiment on α1β1, α2β1 and/or α10β1, the “Off Target” value is listed as “No”.

B4: 16E10: rabbit anti-α11β1 mAb; heavy chain SEQ ID NO: 161, light chain SEQ ID NO: 162 (antibody)
heavy: METGLRWLLLVAVLKGVQCQSLEESGGDLVKPGASLTLTCRVSGFSFSSSYYMCWVRQAPGKGLEWIACIGTTRGSTYYATWAKGRFTISKISSTTVTLQMTSLTDADTATYFCARDATGYRINTIGLYFNLWGPGTLVTVSSGQPKAPSVFPLAPCCGDTPSSTVTLGCLVKGYLPEPVTVTWNSGTLTNGVRTFPSVRQSSGLYSLSSVVSVTSSSQPVTCNVAHPATNTKVDKTVAPSTCSKPMCPPPELPGGPSVFIFPPKPKDTLMISRTPEVTCVVVDVSQDDPEVQFTWYINNEQVRTARPPLREQQFNSTIRVVSTLPIAHQDWLRGKEFKCKVHNKALPAPIEKTISKARGQPLEPKVYTMGPPREELSSRSVSLTCMINGFYPSDISVEWEKNGKAEDNYKTTPTVLDSDGSYFLYSKLSVPTSEWQRGDVFTCSVMHEALHNHYTQKSISRSPGK
light: MDTRAPTQLLGLLLLWLPGARCAFELTQTPSSVEAAVGGTPTIKCQASQTIYSYLSWYQQKPGQPPKLLIYEASKLASGVPSRFSGSGSGTDYTLTISDLECADAATYYCQSYHGTASTEYNTFGGGTEVVVRGDPVAPTVLIFPPAADQVATGTVTIVCVANKYFPDVTVTWEVDGTTQTTGIENSKTPQNSADCTYNLSSTLTLTSTQYNSHKEYTCKVTQGTTSVVQSFNRGDC
Take B4: in experiment [1], the “inhibition of αSMA expression / FMT” value is “inhibit both ligand binding and FMT”; the “Inhibition of FMT” value is “Yes”. Besides, the “CHO-K1 FACS” value in experiment [2] is reported as “Yes”. Moreover, in the experiment on α1β1, α2β1 and/or α10β1, the “Off Target” value is recorded as “No”.

B5: 40G10H11: rat anti-α11β1 mAb; VH SEQ ID NO: 157, VL SEQ ID NO: 158 (antibody, V domains shown)
VH: MDIRLSLGFLVLFIKGDQCAVQLVESGGGLVQPGRSLKLSCAASRITFTDYYMAWVRQAPTKGLEWVATISSDGGDTFYRDSVKGRFTISRDNAKSTLYLQMVSLRSEDTATYYCSTDRGAQFGYWGQGTLVTVSS
VL: MAPVQLLGLLLIWLPAMRCDIQMTQSPSFLSASVGDRVSINCKASQNVHENLNWYQQKLGEAPKRLIYNTNNLQTGIPSRFSGSGSGADYTLTISSLQPEDFATYFCLQHNAFPYTFGPGTKLELK
As for B5, in experiment [1], the “inhibition of αSMA expression / FMT” value was “significantly inhibited αSMA expression” and the “Inhibition of FMT” value is on record as “Yes”. Besides, in experiment [2], the “CHO-K1 FACS” value is recorded as “Yes”. Further, in the experiment on α1β1, α2β1 and/or α10β1, the “cross-reaction with other collagen receptors” value is “does cross-react with other collagen receptors (α1β1, a2β1 and a10β1)”; the “Off Target” value is given as “Yes (all)”.
